Laboratory results as given in paper PMC10602183 (Research Square, 2023).

Legend:
A244 gp120 = target: T1, A244 gp120 (HIV-1 isolate A244); assay: SPR; Biacore 3000, CM4 or CM5 chips; gp120 or BG505-SOSIP amine-coupled to about 750 RU; HBS pH 7.4, 3 mM EDTA, 0.005% Tween-20, 0.05% carboxymethyl-dextran; 25 ul/min, 25 °C; settings: both partners purified
T1 construct: gp120 subunit of Env (cut product of gp160) of HIV-1 isolate A244; also called gp120 protein from A244 viral isolate

[1] = target: T2, gp120 derived from HIV-1 SF162, biotinylated (HIV-1 isolate SF162, UniProt P19550, strain, biotin (Lynx biotinylation kit)); assay: flow cytometry on cells; HmAb64 blocking the staining of primary human CD4+ T cells by biotinylated gp120 (antibody and gp120 both purified proteins in solution); settings: both partners purified
T2 construct: gp120 subunit of Env (cut product of gp160) of HIV-1 isolate SF162; also called SF162 gp120

[2] = target: T3, wild type gp120 Env protein of HIV-1 JR-FL (HIV-1 isolate JR-FL, UniProt Q75760, strain); assay: ELISA; mAb64 against gp120, gp120-Core or their D368R mutant protein, as previously described; settings: both partners purified
T3 construct: gp120 subunit of Env (cut product of gp160) of HIV-1 isolate JR-FL; The ELISA methods name gp120 and gp120-Core proteins; also called JR-FL gp120

[3] = target: T4, wild type gp120 Env protein of HIV-1 YU2 (HIV-1 isolate YU2, UniProt P35961); assay: as above; settings: both partners purified
T4 construct: gp120 subunit of Env (cut product of gp160) of HIV-1 isolate YU2; The ELISA methods name gp120 and gp120-Core proteins; also called YU2 gp120

[4] = target: T5, HIV-1 SF162 Env on infected CD4+ T cells (HIV-1 isolate SF162, UniProt P19550, strain); assay: flow cytometry on cells; primary human CD4+ T cells infected with HIV SF162 for 3 days, stained with HmAb64 (2 ug), goat anti-human-PE; uninfected cells as control; settings: one partner purified
T5 construct: Env as the target follows from the antibody's specificity; also called HIV-1 on cell surface; SF162 infected CD4+ T cells; source: primary human CD4+ T cells infected with HIV SF162, on cells

Measured: binding result

B1: HmAb64 (antibody, V domains shown)
VH: QVQLVQSGAEVKKPGASVKVSCKASGYTFTSYDITWVRQAPGQGLEWMGWISAYNGDTNYAQRLQGRVTMTTDTSTSTAYMELRSLRSDDTAVYYCARAKHTVLVTAMRWFDPWGQGTLVTVSS
VL: DIQMTQSPSSLSASVGDRVTITCRASQSISNYLNWYQQKPGKAPKLLISATSSLQSGVPSRFSGSGSGTDFTLTISSLQPDDFATYYCQQSYSTPWTFGQGTKLEIK
notes: germline IGHV1-18*01, CDR H3 of 15 aa (Kabat); full-length human IgG heavy chain cloned from clone #64; germline IGKV1-39*01, CDR L3 of 9 aa (Kabat); kappa chain cloned from clone #64; Human IgG, kappa; also called clone #64; human IgG (HmAb64)
binds: all assays above
